According to the supplement of paper PMC11196671:
± gives the standard deviation of the averaged measurements.

Legend:
[1] = MHET released, HPLC; higher = more MHET released; extreme values may be limits of the assay; settings: 24 h
Description: (§1)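 Purified PET hydrolases, 2.5 ug enzyme on 3.5 mg amorphous PET film (aFilm) or crystalline PET powder (cryPow) in 0.5 mL of 50 mM buffer (NaCitrate pH 4.5/5.5, NaPhosphate 6.5/7.5, glycine 8.5/9.5) at 60 or 70 C with shaking for 24 h. Total aromatic product by UV-Vis (260/280 nm, blank-subtracted, normalised per mg enzyme) and individual TPA, MHET, BHET concentrations by UHPLC-DAD at 240 nm; duplicate reactions.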

[2] = PET hydrolysis product formed (TPA+MHET+BHET, UV-Vis) per mg enzyme (mmol/mg enzyme); higher = more PET depolymerisation activity; extreme values may be limits of the assay; settings: 2 h
Description: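 Purified PET hydrolases (His-SUMO cleaved, E. coli C41(DE3) small-scale expression), 2.5 ug enzyme on 3.5 mg amorphous PET film (aFilm) or crystalline PET powder (cryPow) in 0.5 mL of 50 mM buffer (NaCitrate pH 4.5/5.5, NaPhosphate 6.5/7.5, glycine 8.5/9.5) at 60 or 70 C with shaking for 2 h. Soluble aromatic products (TPA+MHET+BHET) were quantified by UV-Vis at 260/280 nm, blank-subtracted against the no-enzyme control, and normalised per mg enzyme; duplicate reactions.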

[3] = terephthalic acid (TPA) released, HPLC; higher = more TPA released; extreme values may be limits of the assay; settings: 24 h
Description: as §1

[4] = BHET released, HPLC; higher = more BHET released; extreme values may be limits of the assay; settings: 24 h
Description: as §1

[5] = PET substrate: aFilm, 60 °C, pH 4.5
[6] = PET substrate: aFilm, 60 °C, pH 5.5
[7] = PET substrate: aFilm, 60 °C, pH 6.5
[8] = PET substrate: aFilm, 60 °C, pH 7.5
[9] = PET substrate: aFilm, 60 °C, pH 8.5
[10] = PET substrate: aFilm, 60 °C, pH 9.5
[11] = PET substrate: aFilm, 70 °C, pH 4.5
[12] = PET substrate: aFilm, 70 °C, pH 5.5
[13] = PET substrate: aFilm, 70 °C, pH 6.5
[14] = PET substrate: aFilm, 70 °C, pH 7.5
[15] = PET substrate: aFilm, 70 °C, pH 8.5
[16] = PET substrate: aFilm, 70 °C, pH 9.5
[17] = PET substrate: cryPow, 60 °C, pH 4.5
[18] = PET substrate: cryPow, 60 °C, pH 5.5
[19] = PET substrate: cryPow, 60 °C, pH 6.5
[20] = PET substrate: cryPow, 60 °C, pH 7.5
[21] = PET substrate: cryPow, 60 °C, pH 8.5
[22] = PET substrate: cryPow, 60 °C, pH 9.5
[23] = PET substrate: cryPow, 70 °C, pH 4.5
[24] = PET substrate: cryPow, 70 °C, pH 5.5
[25] = PET substrate: cryPow, 70 °C, pH 6.5
[26] = PET substrate: cryPow, 70 °C, pH 7.5
[27] = PET substrate: cryPow, 70 °C, pH 8.5
[28] = PET substrate: cryPow, 70 °C, pH 9.5

In the case of “SNPYQRGPNPTRSALTADGPFSVATYTVSRLSVSGFGGGVIYYPTGTSLTFGGIAMSPGYTADASSLAWLGRRLASHGFVVLVINTNSRFDGPDSRASQLSAALNYLRTSSPSAVRARLDANRLAVAGHSMGGGGTLRIAEQNPSLKAAVPLTPWHTDKTFNTSVPVLIVGAEADTVAPVSQYAIPFYQNLPSTTPKVYVELCNASHIAPNSDNAAISVYTISWMKLWVDNDTRYRQFLCNVNDPALCDFRTNNRHCQ [LCC-A2]”, the MHET released [1, 5] is reported as 0.107 ± 0.02 mM, the MHET released [1, 6] is reported as 0.735 ± 0.011 mM and the MHET released [1, 7] is reported as 1.23 ± 0.15 mM. For the same sequence, the MHET released [1, 8] was 6.36 ± 0.67 mM, the MHET released [1, 9] was 0.322 ± 0.011 mM and the MHET released [1, 10] was 2.64 ± 0.63 mM. The MHET released [1, 11] was 0 mM, the MHET released [1, 12] was 0.429 ± 0.037 mM and the MHET released [1, 13] was 0.862 ± 0.087 mM. For the same sequence, the MHET released [1, 14] was 8.82 ± 0.22 mM, the MHET released [1, 15] was 0.253 ± 0.066 mM and the MHET released [1, 16] was 2.25 ± 0.33 mM. The MHET released [1, 17] was 0.1017 ± 0.00038 mM, the MHET released [1, 18] was 0.24 ± 0.029 mM and the MHET released [1, 19] was 0.476 ± 0.055 mM. The MHET released [1, 20] was 0.733 ± 0.1 mM, the MHET released [1, 21] was 0.261 ± 0.015 mM and the MHET released [1, 22] was 0.281 ± 0.12 mM. For the same sequence, the MHET released [1, 23] was 0.0080455 ± 1.1e-06 mM, the MHET released [1, 24] was 0.168 ± 0.024 mM and the MHET released [1, 25] was 0.421 ± 0.06 mM. The MHET released [1, 26] was 0.748 ± 0.023 mM, the MHET released [1, 27] was 0.293 ± 0.026 mM and the MHET released [1, 28] was 0.189 ± 0.018 mM. For the same sequence, the “PET hydrolysis product formed” value [2, 5] was 0, the “PET hydrolysis product formed” value [2, 6] was 0.031 ± 0.0083 and the “PET hydrolysis product formed” value [2, 7] was 0.061 ± 0.013. For the same sequence, the “PET hydrolysis product formed” value [2, 8] was 0.144 ± 0.053, the “PET hydrolysis product formed” value [2, 9] was 0.0742 ± 0.0089 and the “PET hydrolysis product formed” value [2, 10] was 0.154 ± 0.051. The “PET hydrolysis product formed” value [2, 11] was 0, the “PET hydrolysis product formed” value [2, 12] was 0.0749 ± 0.014 and the “PET hydrolysis product formed” value [2, 13] was 0.138 ± 0.015. The “PET hydrolysis product formed” value [2, 14] was 0.418 ± 0.071, the “PET hydrolysis product formed” value [2, 15] was 0.09 ± 0.013 and the “PET hydrolysis product formed” value [2, 16] was 0.423 ± 0.15. For the same sequence, the “PET hydrolysis product formed” value [2, 17] was 0.0208 ± 0.002, the “PET hydrolysis product formed” value [2, 18] was 0.0469 ± 0.0042 and the “PET hydrolysis product formed” value [2, 19] was 0.062 ± 0.0046. For the same sequence, the “PET hydrolysis product formed” value [2, 20] was 0.127 ± 0.03, the “PET hydrolysis product formed” value [2, 21] was 0.0645 ± 0.033 and the “PET hydrolysis product formed” value [2, 22] was 0.0424 ± 0.011. For the same sequence, the “PET hydrolysis product formed” value [2, 23] was 0, the “PET hydrolysis product formed” value [2, 24] was 0.0282 ± 0.0032 and the “PET hydrolysis product formed” value [2, 25] was 0.0641 ± 0.0085. For the same sequence, the “PET hydrolysis product formed” value [2, 26] was 0.107 ± 0.0039, the “PET hydrolysis product formed” value [2, 27] was 0.0569 ± 0.00026 and the “PET hydrolysis product formed” value [2, 28] was 0.0859 ± 0.019. The terephthalic acid [3, 5] was 0.195 ± 0.029 mM, the terephthalic acid [3, 6] was 0.792 ± 0.039 mM and the terephthalic acid [3, 7] was 1.34 ± 0.054 mM. It also gave a terephthalic acid [3, 8] of 5.52 ± 0.61 mM, a terephthalic acid [3, 9] of 0.776 ± 0.27 mM and a terephthalic acid [3, 10] of 2.661 ± 0.012 mM. The terephthalic acid [3, 11] was 0.0095 ± 0.0046 mM, the terephthalic acid [3, 12] was 0.455 ± 0.04 mM and the terephthalic acid [3, 13] was 0.83 ± 0.096 mM. It also gave a terephthalic acid [3, 14] of 5.42 ± 0.41 mM, a terephthalic acid [3, 15] of 0.643 ± 0.15 mM and a terephthalic acid [3, 16] of 2.9 ± 0.24 mM. It also gave a terephthalic acid [3, 17] of 0.0633 ± 0.017 mM, a terephthalic acid [3, 18] of 0.132 ± 0.011 mM and a terephthalic acid [3, 19] of 0.232 ± 0.076 mM. For the same sequence, the terephthalic acid [3, 20] was 0.39 ± 0.062 mM, the terephthalic acid [3, 21] was 0.174 ± 0.046 mM and the terephthalic acid [3, 22] was 0.789 ± 0.19 mM. For the same sequence, the terephthalic acid [3, 23] was 0.0184 ± 0.0046 mM, the terephthalic acid [3, 24] was 0.0932 ± 0.015 mM and the terephthalic acid [3, 25] was 0.209 ± 0.045 mM. For the same sequence, the terephthalic acid [3, 26] was 0.639 ± 0.023 mM, the terephthalic acid [3, 27] was 0.157 ± 0.0095 mM and the terephthalic acid [3, 28] was 0.987 ± 0.046 mM. The BHET released [4, 5] was 0 mM, the BHET released [4, 6] was 0 mM and the BHET released [4, 7] was 0 mM. It also gave a BHET released [4, 8] of 0 mM, a BHET released [4, 9] of 0 mM and a BHET released [4, 10] of 0.0275 ± 0.039 mM. For the same sequence, the BHET released [4, 11] was 0 mM, the BHET released [4, 12] was 0.00399 ± 0.0056 mM and the BHET released [4, 13] was 0 mM. For the same sequence, the BHET released [4, 14] was 0.0146 ± 0.021 mM, the BHET released [4, 15] was 0 mM and the BHET released [4, 16] was 0 mM. The BHET released [4, 17] was 0.0062 ± 0.0088 mM, the BHET released [4, 18] was 0 mM and the BHET released [4, 19] was 0 mM. The BHET released [4, 20] was 0 mM, the BHET released [4, 21] was 0 mM and the BHET released [4, 22] was 0 mM. For the same sequence, the BHET released [4, 23] was 0 mM, the BHET released [4, 24] was 0 mM and the BHET released [4, 25] was 0 mM. For the same sequence, the BHET released [4, 26] was 0 mM, the BHET released [4, 27] was 0 mM and the BHET released [4, 28] was 0 mM.
